# Test results: PMC5095173, “Disulfide-activated protein kinase G Iα regulates cardiac diastolic relaxation and fine-tunes the Frank–Starling response” (Nature Communications, 2016)
# What was measured:
# [1] = tested on: PKGIα (analogue-sensitive C42S/M438G), cGMP-activated; test: Chemical genetic phosphoproteomic screen, cGMP-activated PKGIα C42S/M438G versus unactivated control; type: biochemical, human PKGIα; substrates in rat heart homogenate; conditions: for log2 fold change cGMP vs Control: control = PKGIα C42S/M438G; for Log2 fold change in phosphorylation, cGMP versus control: PKGIα C42S/M438G + 100 μM cGMP vs basal, 1 h, 30 °C, pH 7.5, rat heart homogenate, label-free LC–MS/MS, n=4, * P<0.05 Dunnett: all values except phospholamban S16
# How it was run: (§1)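 Analogue-sensitive human PKGIα mutants (M438G, air-oxidized to disulfide dimer; C42S/M438G, cGMP-activated), expressed in 293-F cells, thiophosphorylate substrates in rat left-ventricle lysate (20 mg ml) using N6-alkylated ATPγS. Thiophosphopeptides are recovered by covalent capture and identified with sites by LC–MS/MS, each compared against an unactivated control.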
# [2] = tested on: PKGIα (analogue-sensitive M438G), disulfide-activated; test: Chemical genetic phosphoproteomic screen, disulfide-activated PKGIα M438G versus unactivated control; type: biochemical, human PKGIα; substrates in rat heart homogenate; conditions: for log2 fold change Disulfide vs Control: control = PKGIα C42S/M438G; for Log2 fold change in phosphorylation, Disulfide versus control: disulfide-activated PKGIα M438G vs basal, 1 h, 30 °C, pH 7.5, rat heart homogenate, label-free LC–MS/MS, n=4, * P<0.05 Dunnett: only phospholamban S16
# How it was run: as §1
Molecule,log2 fold change cGMP vs Control [1],log2 fold change Disulfide vs Control [2],"Log2 fold change in phosphorylation, cGMP versus control [1]","Log2 fold change in phosphorylation, Disulfide versus control [2]"
"Atp5a1 pS184 (protein, UniProt P15999 44-553, looked up, phosphorylated at S184) ATP synthase F(1) complex …: QKTGTAEMSSILEERILGADTSVDLEETGRVLSIGDGIARVHGLRNVQAEEMVEFSSGLKGMSLNLEPDNVGVVVFGNDKLIKEGDIVKRTGAIVDVPVGDELLGRVVDALGNAIDGKGPVGSKIRRRVGLKAPGIIPRISVREPMQTGIKAVDSLVPIGRGQRELIIGDRQTGKTSIAIDTIINQKRFNDGTDEKKKLYCIYVAIGQKRSTVAQLVKRLTDADAMKYTIVVSATASDAAPLQYLAPYSGCSMGEYFRDNGKHALIIYDDLSKQAVAYRQMSLLLRRPPGREAYPGDVFYLHSRLLERAAKMNDSFGGGSLTALPVIETQAGDVSAYIPTNVISITDGQIFLETELFYKGIRPAINVGLSVSRVGSAAQTRAMKQVAGTMKLELAQYREVAAFAQFGSDLDAATQQLLSRGVRLTELLKQGQYSPMAIEEQVAVIYAGVRGYLDKLEPSKITKFESAFLSHVVSQHQSLLGNIRSDGKISEQSDAKLKEIVTNFLAGFEP",3.438,1.986,–,–
"C-1-tetrahydrofolate synthase, cytoplasmic: PKGIα substrate, phospho site T545 (protein, UniProt P27653 1-935, looked up, phosphorylated at T545) C-1-tetrahydrofolate …: MAPAGILNGKVVSAQIRNRLKTQVTQMQEQVPGFTPGLAILQVGDRDDSNLYINVKLKAAQEIGIKATHIKLPRTSTESEVLKYVISLNEDATVHGFIVQLPLDSENSINTEAVINAIAPEKDVDGLTSINAGKLARGDLKDCFIPCTPKGCLELIKETGVQIAGRHAVVVGRSKIVGAPMHDLLLWNNATVTTCHSKTADLDKEVNKGDILVVATGQPEMVKGEWIKPGAVVIDCGINYVPDDTKPNGRKVVGDVAYDEAKEKASFITPVPGGVGPMTVAMLMQSTVESAQRFLKKFKPGKWTIQYNKLNLKTPVPSDIAISRSCKPKLIGNLAREIGLLTEEVELYGETKAKVLLSALDRLKHQPDGKYVVVTGITPTPLGEGKSTTTIGLVQALGAHLHQNVFACVRQPSQGPTFGIKGGAAGGGYSQVIPMEEFNLHLTGDIHAITAANNLVAAAIDARIFHELTQTDKALFNRLVPSVNGVRKFSDIQIRRLRRLGIEKTDPAALTDDEINRFARLDIDPETITWQRVLDTNDRFLRKITIGQAPTEKGHTRTAQFDISVASEIMAVLALTSSLEDMRARLGKMVVASSKKGEPISCEDLGVSGALTVLMKDAIKPNLMQTLEGTPVFVHAGPFANIAHGNSSIIADRIALKLVGPEGFVVTEAGFGADIGMEKFFNIKCRYSGLQPHVVVLVATVRALKMHGGGPTVTAGLPLPKAYTEEDLDLVEKGFSNLRKQIENARMFGVPVVVAMNAFKTDTDTELDLIGRLSREHGAFDAVKCTHWAEGGQGALALAQAVQRASQAPSSFQLLYDLKLSVEDKIRIIAQKIYGADDIELLPEAQNKAEIYTKQGFGNLPICMAKTHLSLSHNPEQKGVPTGFVLPIRDIRASVGAGFLYPLVGTMSTMPGLPTRPCFYDIDLDPETEQVNGLF",–,–,3.68*,1.48
"6-phosphofructokinase, liver type: PKGIα substrate, phospho site S775 (protein, UniProt P30835 2-780, looked up, phosphorylated at S775) ATP-dependent …: ATVDLEKLRMSGAGKAIGVLTSGGDAQGMNAAVRAVTRMGIYVGAKVFLIYEGYEGLVEGGENIKPANWLSVSNIIQLGGTIIGSARCKAFTTREGRLAAAYNLLQHGITNLCVIGGDGSLTGANIFRNEWGSLLEELVKEGKISESTAQNYAHLSIAGLVGSIDNDFCGTDMTIGTDSALHRIMEVIDAITTTAQSHQRTFVLEVMGRHCGYLALVSALASGADWLFIPEAPPEDGWENFMCERLGETRSRGSRLNIIIIAEGAIDRHGKPISSSYVKDLVVQRLGFDTRVTVLGHVQRGGTPSAFDRVLSSKMGMEAVMALLEATPDTPACVVSLSGNQSVRLPLMECVQVTKDVQKAMDEKRFDEAIQLRGRSFENNWKIYKLLAHQKVSKEKSNFSLAILNVGAPAAGMNAAVRSAVRTGISEGHTVYVVHDGFEGLAKGQVQEVGWHDVAGWLGRGGSMLGTKRTLPKPHLEAIVENLRTYNIHALLVIGGFEAYEGVLQLVEARGRYEELCIVMCVIPATISNNVPGTDFSLGSDTAVNAAMESCDRIKQSASGTKRRVFIVETMGGYCGYLATVTGIAVGADAAYVFEDPFNIHDLKANVEHMTEKMKTDIQRGLVLRNEKCHEHYTTEFLYNLYSSEGRGVFDCRTNVLGHLQQGGAPTPFDRNYGTKLGVKAMLWMSEKLRDVYRKGRVFANAPDSACVIGLRKKVVAFSSVTELKKETDFEHRMPREQWWLNLRLMLKMLAHYRISMADYVSGELEHVTRRTLSIDKGF",–,–,4.13*,1.48
"Pfkl pS775 (protein, UniProt P30835 2-780, looked up, phosphorylated at S775) ATP-dependent …: ATVDLEKLRMSGAGKAIGVLTSGGDAQGMNAAVRAVTRMGIYVGAKVFLIYEGYEGLVEGGENIKPANWLSVSNIIQLGGTIIGSARCKAFTTREGRLAAAYNLLQHGITNLCVIGGDGSLTGANIFRNEWGSLLEELVKEGKISESTAQNYAHLSIAGLVGSIDNDFCGTDMTIGTDSALHRIMEVIDAITTTAQSHQRTFVLEVMGRHCGYLALVSALASGADWLFIPEAPPEDGWENFMCERLGETRSRGSRLNIIIIAEGAIDRHGKPISSSYVKDLVVQRLGFDTRVTVLGHVQRGGTPSAFDRVLSSKMGMEAVMALLEATPDTPACVVSLSGNQSVRLPLMECVQVTKDVQKAMDEKRFDEAIQLRGRSFENNWKIYKLLAHQKVSKEKSNFSLAILNVGAPAAGMNAAVRSAVRTGISEGHTVYVVHDGFEGLAKGQVQEVGWHDVAGWLGRGGSMLGTKRTLPKPHLEAIVENLRTYNIHALLVIGGFEAYEGVLQLVEARGRYEELCIVMCVIPATISNNVPGTDFSLGSDTAVNAAMESCDRIKQSASGTKRRVFIVETMGGYCGYLATVTGIAVGADAAYVFEDPFNIHDLKANVEHMTEKMKTDIQRGLVLRNEKCHEHYTTEFLYNLYSSEGRGVFDCRTNVLGHLQQGGAPTPFDRNYGTKLGVKAMLWMSEKLRDVYRKGRVFANAPDSACVIGLRKKVVAFSSVTELKKETDFEHRMPREQWWLNLRLMLKMLAHYRISMADYVSGELEHVTRRTLSIDKGF",4.1288,1.482,–,–
"Akap1 pS103 (protein, UniProt O88884 30-854, looked up, phosphorylated at S103) A-kinase anchor protein 1, …: KDRLSSNGKQVGTLKVGPAIEDRLPTEEACPGVLSVTPSVTQPPGKEEQRSMDRPLSDPPALPRTRQVRRRSESSGNLPSIVDTRLQAGQCSDENSKVVLSLMGDEAKSIPLGRPLFPKDLSFPYEAVEGCKQESALGRTPGRGWLSQCAASGENARETGGAEGTGDAVLGESVLEEGLLPQECVSEVEKSEFPILAPGGGGGEKVRSGPPQVDELLKKEEYIVGKLPSSFVGPVHSELVKDEGALVPQVKGSQDRSLARELDKDKTLPEKDQIEQTAFQIISQVILEATEEIRATTVGKTVAQVHPTPGTQPQGQEESCVPASQETSLGQEIPDPASTRTGATASPSAGAPPPKTYVSCLSSPLSGPTKDQKPKNSAHHISLAPCPPPVTPQRQSLDGASNPRGDDTFVTCTSNNSQSVLSVTSLGLCSDPVSTSRLEDSCTETISSSGDKAVTPPLPDSTEPFSNGVLKEELSDLGTEDGWTMDTEADHSGGSDGNSMDSVDSCCGLTKPDSPQTVQAGSNPKKVDLIIWEIEVPKHLVGRLIGKQGRYVSFLKQTSGAKIYISTLPYTQNIQICHIEGSQHHVDKALNLIGKKFKELNLTNIYAPPLPSLALPSLPMTSWLMLPDGITVEVIVVNQVNAGHLFVQQHTHPTFHALRSLDQQMYLCYSQPGIPTLPTPVEITVICAAPGADGAWWRAQVVASYEETNEVEIRYVDYGGYKRVKVDVLRQIRSDFVTLPFQGAEVLLDSVVPLSDDDHFSPEADAAMSEMTGNTALLAQVTSYSATGLPLIQLWSVVGDEVVLINRSLVERGLAQWVDSCYASL",1.156,0.8425,–,–
"Alpha-2-macroglobulin receptor-associated protein: PKGIα substrate, phospho site S245 (protein, UniProt Q99068 34-360, looked up, phosphorylated at S245) Alpha-2-macroglobulin …: HGGKYSREKNEPEMAAKRESGEEFRMEKLNQLWEKAKRLHLSPVRLAELHSDLKIQERDELNWKKLKVEGLDGDGEKEAKLVHNLNVILARYGLDGRKDTQTVHSNALNEDTQDELGDPRLEKLWHKAKTSGKFSSEELDKLWREFLHYKEKIHEYNVLLDTLSRAEEGYENLLSPSDMTHIKSDTLASKHSELKDRLRSINQGLDRLRKVSHQGYGPATEFEEPRVIDLWDLAQSANFTEKELESFREELKHFEAKIEKHNHYQKQLEISHQKLKHVESIGDPEHISRNKEKYVLLEEKTKELGYKVKKHLQDLSSRVSRARHNEL",–,–,2.64*,0.32
"Lrpap1 pS245 (protein, UniProt Q99068 34-360, looked up, phosphorylated at S245) Alpha-2-macroglobulin …: HGGKYSREKNEPEMAAKRESGEEFRMEKLNQLWEKAKRLHLSPVRLAELHSDLKIQERDELNWKKLKVEGLDGDGEKEAKLVHNLNVILARYGLDGRKDTQTVHSNALNEDTQDELGDPRLEKLWHKAKTSGKFSSEELDKLWREFLHYKEKIHEYNVLLDTLSRAEEGYENLLSPSDMTHIKSDTLASKHSELKDRLRSINQGLDRLRKVSHQGYGPATEFEEPRVIDLWDLAQSANFTEKELESFREELKHFEAKIEKHNHYQKQLEISHQKLKHVESIGDPEHISRNKEKYVLLEEKTKELGYKVKKHLQDLSSRVSRARHNEL",2.6435,0.3181,–,–
"Fdx1 pS181 (protein, UniProt P24483 65-188, looked up, phosphorylated at S181) Adrenodoxin, mitochondrial: SSSEDKVTVHFKNRDGETLTTKGKVGDSLLDVVIENNLDIDGFGACEGTLACSTCHLIFEDHIYEKLDAITDEENDMLDLAFGLTNRSRLGCQVCLTKAMDNMTVRVPEAVADVRQSVDMSKNS",5.584,2.723,–,–
